The text below walks through data of PMC3978877.

The target of the test is TNFα (UniProt P06804).
UniProt P06804, sequence (P06804 80-235): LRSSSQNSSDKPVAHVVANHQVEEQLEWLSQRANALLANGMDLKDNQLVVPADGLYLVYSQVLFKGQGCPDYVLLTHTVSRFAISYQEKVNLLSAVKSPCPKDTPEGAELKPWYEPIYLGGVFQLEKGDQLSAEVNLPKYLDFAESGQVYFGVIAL

B1: muTNFR-Fc (Fc fusion)
chain: VPAQVVLTPYKPEPGYECQISQEYYDRKAQMCCAKCPPGQYVKHFCNKTSDTVCADCEASMYTQVWNQFRTCLSCSSSCTTDQVEIRACTKQQNRVCACEAGRYCALKTHSGSCRQCMRLSKCGPGFGVASSRAPNGNVLCKACAPGTFSDTTSSTDVCRPHRICSILAIPGNASTDAVCAPESPTLSAIPRTLYVSQPEPTRSQPLDQEPGPSQTPSILTSLGSTPIIEQSTKGG
In the case of B1, the inhibition of TNF-mediated killing of lung murine fibroblasts (TNFα trimer 5 pM, actinomycin D 2 μg/ml, muTNFR-Fc 50 nM to 0.1 pM, 24 h); half-maximal inhibitory concentration was determined as 0.1 nM.
